Test results: patent US20150064134A1

Experiments:
Assay in all cases: cell-based or functional assay
SAPK4(h) (human) = molecular target: T1, SAPK4(h) (human) (UniProt O15264)
T1 sequence (looked up): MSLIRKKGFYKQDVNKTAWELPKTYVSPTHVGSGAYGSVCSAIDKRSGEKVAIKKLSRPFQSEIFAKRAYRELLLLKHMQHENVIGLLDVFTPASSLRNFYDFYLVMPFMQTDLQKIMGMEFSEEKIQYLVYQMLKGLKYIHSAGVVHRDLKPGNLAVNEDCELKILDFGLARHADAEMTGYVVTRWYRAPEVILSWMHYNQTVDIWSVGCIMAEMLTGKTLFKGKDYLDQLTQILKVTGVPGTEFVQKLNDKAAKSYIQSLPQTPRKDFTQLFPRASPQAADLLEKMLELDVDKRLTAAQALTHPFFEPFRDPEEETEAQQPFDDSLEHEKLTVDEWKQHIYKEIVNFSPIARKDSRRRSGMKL

GRK7(h) (human) = molecular target: T2, GRK7(h) (human) (UniProt Q8WTQ7)
T2 sequence (looked up): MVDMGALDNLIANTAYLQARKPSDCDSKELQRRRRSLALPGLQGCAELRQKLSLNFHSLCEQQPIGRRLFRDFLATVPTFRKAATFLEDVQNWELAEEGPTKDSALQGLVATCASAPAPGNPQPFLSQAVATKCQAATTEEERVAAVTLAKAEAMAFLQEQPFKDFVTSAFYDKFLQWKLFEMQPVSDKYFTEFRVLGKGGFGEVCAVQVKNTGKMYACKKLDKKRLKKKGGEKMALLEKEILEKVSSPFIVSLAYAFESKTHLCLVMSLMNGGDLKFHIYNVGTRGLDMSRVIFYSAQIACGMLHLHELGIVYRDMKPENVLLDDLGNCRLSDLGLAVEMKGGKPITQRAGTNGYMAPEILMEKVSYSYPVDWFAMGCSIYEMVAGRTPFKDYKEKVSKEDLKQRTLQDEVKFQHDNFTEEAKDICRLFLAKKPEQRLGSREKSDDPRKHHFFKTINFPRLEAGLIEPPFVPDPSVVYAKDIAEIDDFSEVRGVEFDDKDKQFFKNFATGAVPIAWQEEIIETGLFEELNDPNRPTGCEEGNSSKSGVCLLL

MSK2(h) (human) = MSK2(h) (human) (UniProt O75676)
Fer(h) (human) = Fer(h) (human) (UniProt P16591)
ROCK-I(h) (human) = ROCK-I(h) (human) (UniProt Q13464)
Fes(h) (human) = Fes(h) (human) (UniProt P07332)
SAPK2a(h) (human) = SAPK2a(h) (human) (UniProt Q16539)
Sequence of SAPK2a(h) (human) (Q16539 whole entry): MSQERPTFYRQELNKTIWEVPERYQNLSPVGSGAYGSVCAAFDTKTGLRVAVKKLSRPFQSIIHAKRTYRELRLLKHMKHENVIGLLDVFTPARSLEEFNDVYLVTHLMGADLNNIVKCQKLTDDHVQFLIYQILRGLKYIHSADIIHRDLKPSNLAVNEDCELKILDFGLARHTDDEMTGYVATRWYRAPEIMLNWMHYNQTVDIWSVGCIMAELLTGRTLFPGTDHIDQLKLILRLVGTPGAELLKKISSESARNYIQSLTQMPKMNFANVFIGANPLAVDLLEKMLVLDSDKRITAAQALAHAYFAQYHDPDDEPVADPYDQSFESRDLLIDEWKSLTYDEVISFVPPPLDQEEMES

SGK(h) (human) = SGK(h) (human) (UniProt O00141)
Sequence of SGK(h) (human) (O00141 60-431 limits assumed): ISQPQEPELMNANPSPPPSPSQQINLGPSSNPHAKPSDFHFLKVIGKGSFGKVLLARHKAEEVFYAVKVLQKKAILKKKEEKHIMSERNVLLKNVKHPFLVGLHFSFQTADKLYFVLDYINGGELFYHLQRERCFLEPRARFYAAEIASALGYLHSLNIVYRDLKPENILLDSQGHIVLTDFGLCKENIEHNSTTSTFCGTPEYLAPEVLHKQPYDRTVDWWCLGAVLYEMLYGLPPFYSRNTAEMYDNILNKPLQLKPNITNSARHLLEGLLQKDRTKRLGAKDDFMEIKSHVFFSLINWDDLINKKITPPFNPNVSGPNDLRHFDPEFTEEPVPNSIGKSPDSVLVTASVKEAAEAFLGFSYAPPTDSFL

Pim-3(h) (human) = Pim-3(h) (human) (UniProt Q86V86)
PRAK(h) (human) = PRAK(h) (human) (UniProt Q8IW41)
Sequence of PRAK(h) (human) (Q8IW41 whole entry): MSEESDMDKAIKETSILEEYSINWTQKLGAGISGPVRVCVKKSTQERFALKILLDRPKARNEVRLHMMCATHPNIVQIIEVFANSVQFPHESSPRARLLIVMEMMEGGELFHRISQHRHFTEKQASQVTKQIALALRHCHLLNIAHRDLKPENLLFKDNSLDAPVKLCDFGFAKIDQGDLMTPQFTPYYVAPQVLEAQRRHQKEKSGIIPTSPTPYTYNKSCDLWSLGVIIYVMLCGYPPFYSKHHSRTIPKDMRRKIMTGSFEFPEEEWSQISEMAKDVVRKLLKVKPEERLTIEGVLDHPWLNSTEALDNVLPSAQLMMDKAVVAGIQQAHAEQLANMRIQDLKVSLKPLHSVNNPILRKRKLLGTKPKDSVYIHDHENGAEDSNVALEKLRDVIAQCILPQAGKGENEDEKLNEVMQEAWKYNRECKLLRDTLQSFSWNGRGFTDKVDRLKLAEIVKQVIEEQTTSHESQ

MAPK2(h) (human) = MAPK2(h) (human) (UniProt P28482)
Sequence of MAPK2(h) (human) (P28482 whole entry): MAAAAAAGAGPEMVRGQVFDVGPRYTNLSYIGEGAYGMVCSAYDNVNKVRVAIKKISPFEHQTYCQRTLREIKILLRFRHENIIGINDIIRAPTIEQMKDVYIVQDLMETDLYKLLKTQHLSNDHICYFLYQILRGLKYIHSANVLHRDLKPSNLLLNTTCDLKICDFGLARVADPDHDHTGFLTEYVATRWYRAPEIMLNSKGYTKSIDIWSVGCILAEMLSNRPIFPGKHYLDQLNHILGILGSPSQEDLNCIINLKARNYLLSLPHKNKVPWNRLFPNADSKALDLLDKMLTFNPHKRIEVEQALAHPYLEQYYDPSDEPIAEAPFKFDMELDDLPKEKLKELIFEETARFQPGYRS

ULK3(h) (human) = molecular target: T3, ULK3(h) (human) (UniProt Q6PHR2)
T3 sequence (looked up): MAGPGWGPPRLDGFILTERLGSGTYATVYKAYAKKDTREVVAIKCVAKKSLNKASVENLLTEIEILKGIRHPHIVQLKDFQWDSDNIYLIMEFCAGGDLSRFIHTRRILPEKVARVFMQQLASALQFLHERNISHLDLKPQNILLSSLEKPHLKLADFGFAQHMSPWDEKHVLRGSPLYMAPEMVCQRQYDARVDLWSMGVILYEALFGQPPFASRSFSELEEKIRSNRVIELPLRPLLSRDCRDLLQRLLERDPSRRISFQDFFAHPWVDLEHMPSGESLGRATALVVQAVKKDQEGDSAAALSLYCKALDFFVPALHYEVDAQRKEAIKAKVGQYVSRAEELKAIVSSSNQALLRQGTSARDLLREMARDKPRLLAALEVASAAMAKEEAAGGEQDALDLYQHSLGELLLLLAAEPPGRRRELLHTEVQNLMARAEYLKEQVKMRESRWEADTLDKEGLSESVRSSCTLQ

CDK2/cyclinA(h) (human) = CDK2/cyclinA(h) (human) (UniProt P24941)
PRK2(h) (human) = PRK2(h) (human) (UniProt Q16513)
PDGFRα(h) (human) = PDGFRα(h) (human) (UniProt P16234)
Sequence of PDGFRα(h) (human) (P16234 550-1089 limits assumed): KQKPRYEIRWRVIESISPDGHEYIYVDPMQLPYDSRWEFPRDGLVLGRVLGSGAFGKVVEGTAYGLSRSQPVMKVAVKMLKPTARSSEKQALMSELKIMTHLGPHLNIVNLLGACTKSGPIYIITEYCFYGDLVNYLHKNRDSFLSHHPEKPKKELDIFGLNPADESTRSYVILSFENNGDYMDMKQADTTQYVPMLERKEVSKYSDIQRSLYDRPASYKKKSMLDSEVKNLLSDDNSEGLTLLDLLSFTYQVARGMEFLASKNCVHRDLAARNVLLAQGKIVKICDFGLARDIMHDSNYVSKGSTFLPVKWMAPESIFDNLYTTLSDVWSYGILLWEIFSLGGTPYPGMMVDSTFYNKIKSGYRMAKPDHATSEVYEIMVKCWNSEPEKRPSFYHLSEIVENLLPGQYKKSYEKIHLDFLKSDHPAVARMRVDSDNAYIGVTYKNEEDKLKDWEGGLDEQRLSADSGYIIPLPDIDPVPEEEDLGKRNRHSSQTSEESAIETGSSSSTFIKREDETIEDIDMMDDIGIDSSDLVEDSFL

Met(M1268T)(h) (human) = Met(M1268T)(h) (human) (UniProt P08581)
PKCζ(h) (human) = molecular target: T4, PKCζ(h) (human) (UniProt Q05513)
T4 sequence (looked up): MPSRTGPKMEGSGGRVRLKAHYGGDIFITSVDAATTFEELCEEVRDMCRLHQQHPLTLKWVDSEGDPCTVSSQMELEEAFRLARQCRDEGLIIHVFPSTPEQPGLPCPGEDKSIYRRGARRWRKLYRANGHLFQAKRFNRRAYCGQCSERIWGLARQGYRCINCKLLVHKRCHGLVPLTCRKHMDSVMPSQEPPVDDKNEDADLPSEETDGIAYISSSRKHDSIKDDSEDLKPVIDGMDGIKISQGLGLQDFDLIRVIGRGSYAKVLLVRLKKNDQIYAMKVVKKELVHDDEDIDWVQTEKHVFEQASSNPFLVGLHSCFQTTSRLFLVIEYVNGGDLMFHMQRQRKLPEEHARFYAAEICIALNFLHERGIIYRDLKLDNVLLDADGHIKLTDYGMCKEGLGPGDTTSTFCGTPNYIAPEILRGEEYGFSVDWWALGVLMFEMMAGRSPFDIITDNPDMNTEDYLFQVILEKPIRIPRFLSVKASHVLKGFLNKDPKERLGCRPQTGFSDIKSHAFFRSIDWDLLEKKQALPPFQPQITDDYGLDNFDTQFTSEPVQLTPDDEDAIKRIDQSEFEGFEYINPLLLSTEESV

PKCα(h) (human) = PKCα(h) (human) (UniProt P17252)
SAPK2b(h) (human) = SAPK2b(h) (human) (UniProt Q15759)
Sequence of SAPK2b(h) (human) (Q15759 whole entry): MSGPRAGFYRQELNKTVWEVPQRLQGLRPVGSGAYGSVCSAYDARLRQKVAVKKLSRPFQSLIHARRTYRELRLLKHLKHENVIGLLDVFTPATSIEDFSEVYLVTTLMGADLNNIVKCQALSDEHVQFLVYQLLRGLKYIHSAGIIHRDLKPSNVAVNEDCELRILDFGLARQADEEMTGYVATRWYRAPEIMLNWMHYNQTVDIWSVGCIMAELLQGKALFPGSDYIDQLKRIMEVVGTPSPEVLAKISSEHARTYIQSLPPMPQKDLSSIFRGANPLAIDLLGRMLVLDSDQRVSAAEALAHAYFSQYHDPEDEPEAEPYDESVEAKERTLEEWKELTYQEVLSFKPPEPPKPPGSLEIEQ

MMI-0300 (peptide)
% activity at 100 µM (SAPK4(h) (human)): 96% | % activity at 100 µM (GRK7(h) (human)): 122% | % activity at 100 µM (MSK2(h) (human)): 56% | % activity at 100 µM (Fer(h) (human)): 130% | % activity at 100 µM (ROCK-I(h) (human)): 79% | % activity at 100 µM (Fes(h) (human)): 20% | % activity at 100 µM (SAPK2a(h) (human)): 90% | % activity at 100 µM (SGK(h) (human)): 48% | % activity at 100 µM (Pim-3(h) (human)): 80% | % activity at 100 µM (PRAK(h) (human)): 128% | % activity at 100 µM (MAPK2(h) (human)): 98% | % activity at 100 µM (ULK3(h) (human)): 167% | % activity at 100 µM (CDK2/cyclinA(h) (human)): 86% | % activity at 100 µM (PRK2(h) (human)): 33% | % activity at 100 µM (PDGFRα(h) (human)): 65% | % activity at 100 µM (Met(M1268T)(h) (human)): 255% | % activity at 100 µM (PKCζ(h) (human)): 81% | % activity at 100 µM (PKCα(h) (human)): 89% | % activity at 100 µM (SAPK2b(h) (human)): 81%

MMI-0400 (peptide)
% activity at 100 µM (SAPK4(h) (human)): 91% | % activity at 100 µM (GRK7(h) (human)): 100% | % activity at 100 µM (MSK2(h) (human)): 52% | % activity at 100 µM (Fer(h) (human)): 108% | % activity at 100 µM (ROCK-I(h) (human)): 73% | % activity at 100 µM (Fes(h) (human)): 16% | % activity at 100 µM (SAPK2a(h) (human)): 85% | % activity at 100 µM (SGK(h) (human)): 54% | % activity at 100 µM (Pim-3(h) (human)): 80% | % activity at 100 µM (PRAK(h) (human)): 118% | % activity at 100 µM (MAPK2(h) (human)): 93% | % activity at 100 µM (ULK3(h) (human)): 147% | % activity at 100 µM (CDK2/cyclinA(h) (human)): 92% | % activity at 100 µM (PRK2(h) (human)): 27% | % activity at 100 µM (PDGFRα(h) (human)): 40% | % activity at 100 µM (Met(M1268T)(h) (human)): 265% | % activity at 100 µM (PKCζ(h) (human)): 75% | % activity at 100 µM (PKCα(h) (human)): 86% | % activity at 100 µM (SAPK2b(h) (human)): 82%

MMI-0500 (peptide)
% activity at 100 µM (SAPK4(h) (human)): 48% | % activity at 100 µM (GRK7(h) (human)): 93% | % activity at 100 µM (MSK2(h) (human)): 14% | % activity at 100 µM (Fer(h) (human)): 196% | % activity at 100 µM (ROCK-I(h) (human)): 17% | % activity at 100 µM (Fes(h) (human)): 23% | % activity at 100 µM (SAPK2a(h) (human)): 52% | % activity at 100 µM (SGK(h) (human)): 2% | % activity at 100 µM (Pim-3(h) (human)): 37% | % activity at 100 µM (PRAK(h) (human)): 95% | % activity at 100 µM (MAPK2(h) (human)): 60% | % activity at 100 µM (ULK3(h) (human)): 177% | % activity at 100 µM (CDK2/cyclinA(h) (human)): 87% | % activity at 100 µM (PRK2(h) (human)): 7% | % activity at 100 µM (PDGFRα(h) (human)): 40% | % activity at 100 µM (Met(M1268T)(h) (human)): 239% | % activity at 100 µM (PKCζ(h) (human)): 7% | % activity at 100 µM (PKCα(h) (human)): 3% | % activity at 100 µM (SAPK2b(h) (human)): 42%
